Source: PMC5536344

How the values were obtained:
[1] = biological target: HIV-1 Pr55^Gag with a non-cleavable C-terminal hexahistidine tag (HIV-1); assay: SEC
[2] = biological target: HIV-1 Pr55^Gag with a TEV-cleavable C-terminal hexahistidine tag, uncleaved (HIV-1); assay: SEC
[3] = biological target: HIV-1 Pr55^Gag-ENLYFQ (Pr55^Gag-TEV-His after removal of the tag with TEV protease) (HIV-1); assay: SEC
[4] = biological target: HIV-1 Pr55^Gag (untagged full length wild type Gag polyprotein) (HIV-1); assay: SEC
[5] = biological target: HIV-1 Pr55^Gag (untagged full length wild type Gag polyprotein) (HIV-1); assay: SEC-MALS

## HIV-1 Pr55^Gag with a non-cleavable C-terminal hexahistidine tag (natural protein)
[1]
  stoichiometry N: 2

## HIV-1 Pr55^Gag with a TEV-cleavable C-terminal hexahistidine tag, uncleaved (natural protein)
[2]
  stoichiometry N: 2

## HIV-1 Pr55^Gag-ENLYFQ (Pr55^Gag-TEV-His after removal of the tag with TEV protease) (natural protein)
[3]
  stoichiometry N: 2

## HIV-1 Pr55^Gag (untagged full length wild type Gag polyprotein) (natural protein)
[4]
  stoichiometry N: 2
[5]
  stoichiometry N: 2
